Test results reported in publication PMC2654182 (Biochemistry, 2008).

T1: BARD1 (423-777) (human, UniProt Q99728 423-777)
T1 sequence (looked up): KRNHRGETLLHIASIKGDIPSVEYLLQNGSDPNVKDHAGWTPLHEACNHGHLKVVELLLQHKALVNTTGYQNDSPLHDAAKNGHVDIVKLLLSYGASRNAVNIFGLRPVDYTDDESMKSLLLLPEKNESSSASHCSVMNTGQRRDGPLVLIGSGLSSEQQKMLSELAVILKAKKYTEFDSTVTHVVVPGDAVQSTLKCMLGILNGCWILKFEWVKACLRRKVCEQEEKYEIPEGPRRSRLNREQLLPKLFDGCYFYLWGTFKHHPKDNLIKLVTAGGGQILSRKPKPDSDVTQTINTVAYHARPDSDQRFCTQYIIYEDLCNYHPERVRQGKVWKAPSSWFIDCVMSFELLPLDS

B1: GST-CstF-50 (92-431) (domain or fragment, human, UniProt Q05048 92-431, looked up)
chain: MSPEASEYETCYVTSHKGPCRVATYSRDGQLIATGSADASIKILDTERMLAKSAMPIEVMMNETAQQNMENHPVIRTLYDHVDEVTCLAFHPTEQILASGSRDYTLKLFDYSKPSAKRAFKYIQEAEMLRSISFHPSGDFILVGTQHPTLRLYDINTFQCFVSCNPQDQHTDAICSVNYNSSANMYVTGSKDGCIKLWDGVSNRCITTFEKAHDGAEVCSAIFSKNSKYILSSGKDSVAKLWEISTGRTLVRYTGAGLSGRQVHRTQAVFNHTEDYVLLPDERTISLCCWDSRTAERRNLLSLGHNNIVRCIVHSPTNPGFMTCSDDFRARFWYRRSTTD

Columns and labels:
GST-CstF-50 (92-431) = target: B1; assay: pull-down
BARD1 (423-777) = target: T1, BARD1 (423-777); assay: pull-down

| binding result (GST-CstF-50 (92-431)) | binding result (BARD1 (423-777)) | Binder |
| --- | --- | --- |
| binds | – | BARD1 (554-777) (domain or fragment, human, UniProt Q99728 554-777, looked up) ASHCSVMNTGQRRDGPLVLIGSGLSSEQQKMLSELAVILKAKKYTEFDSTVTHVVVPGDAVQSTLKCMLGILNGCWILKFEWVKACLRRKVCEQEEKYEIPEGPRRSRLNREQLLPKLFDGCYFYLWGTFKHHPKDNLIKLVTAGGGQILSRKPKPDSDVTQTINTVAYHARPDSDQRFCTQYIIYEDLCNYHPERVRQGKVWKAPSSWFIDCVMSFELLPLDS |
| – | binds | B1 |
